What was measured:
[1] = Enzyme assay: conversion of FPP to sesquiterpenes by recombinant sesquiterpene synthase, GC / GC-MS analysis; format: biochemical; details: FPP as substrate; for main (major) sesquiterpene product formed: crude protein extract from E. coli expressing the recombinant synthase, GC-MS and retention index
Description: In a standard protein expression experiment, the expression plasmids containing the sesquiterpene synthase cDNAs as well as the empty plasmid (for negative control) were transformed into the BL21(DE3) or the BL21 STAR™ (DE3) E. coli cells (Novagen). Single colonies of transformed E. coli were used to inoculate 5 ml LB medium. After 5 to 6 hours of incubation at 37° C., the cultures were transferred to a 20° C. incubator and left 1 hour for equilibration. Expression of the protein was then induced by addition of 0.5 mM IPTG and the culture incubated over-night at 20° C. The next day, the cells were collected by centrifugation, resuspended in 0.5 ml Extraction Buffer (50 mM MOPSO pH 7, 5 mM DTT, 10% glycerol) and sonicated 3 times 30 s. The cell debris were sedimented by centrifugation 30 min at 18,000 g and the supernatant containing the soluble proteins was recovered. The expression of the sesquiterpene synthases was evaluated by separation of the protein extract on a SDS-PAGE, staining with coomassie blue and comparison to protein extract obtained from cells transformed with the empty plasmid.
The enzymatic assays were performed in Teflon sealed glass tubes using 50 to 100 μl of protein extract in a final volume of 1 mL Extraction Buffer supplemented with 15 mM MgCl2 and 100 to 250 μM FPP (Sigma). The medium was overlaid with 1 ml pentane and the tubes incubated over-night at 30° C. The pentane phase, containing the sesquiterpenes, was recovered and the medium extract with a second volume of pentane. The combined pentane fractions were concentrated under nitrogen and analyzed by Gas Chromatography on a on a Hewlett-Packard 6890 Series GC system using a 0.25 mm inner diameter by 30 m SPB-1 (Supelco) capillary column. The carrier gas was He at constant flow of 1.6 ml/min. Injection was done in splitless mode with the injector set at 200° C. and the oven programmed from 100° C. (0 min hold) at 7.5° C./min to 200° C. (0 min hold) followed by 20° C./min to 280° C. (2 min hold). Detection was made with a flame ionization detector. Compound identification was based on retention time identity with authentic standards when available. For confirmation of the products identities, samples were analyzed by combined capillary GC-MS using a Hewlett-Packard 6890 GC-quadrupole mass selective detector system, equipped with a 0.25 mm inner diameter by 30 m SPB-1 (Supelco) capillary column. The oven was programmed from 80° C. (0 min hold) to 280° C. at 7° C. at a constant flow of 1.5 ml/min He. The spectra were recorded at 70 eV with an electron multiplier voltage of 2200V. Retention time of the enzyme products were compared to the retention time of authentic standard, or the Kovats retention index was calculated and compared to published data (Joulain, D., and König, W. A. The Atlas of Spectral Data of Sesquiterpene Hydrocarbons, EB Verlag, Hamburg, 1998).
For the biochemical characterization of the sesquiterpene synthases for which the full-length cDNA was isolated, the cDNA was ligated into appropriate expression plasmids. This plasmid were used to transform E coli cells and after expression of the recombinant proteins, the E coli proteins were extracted and used to evaluate the biochemical conversion of FPP to sesquiterpene compounds (see Examples 5 and 6).

BL21 (DE3) E. coli cells = test: In vivo sesquiterpene production assay in E. coli from the endogenous FPP pool; format: cell-based; details: E. coli cells expressing the synthase, 24 hours after 1 mM IPTG, pentane extract, GC / GC-MS; none with empty plasmid
Description: Experiments were performed using E. coli, to test the ability of the patchoulol synthase to synthesise, in vivo, sesquiterpenes from the endogenous FPP pool. Typical experiments for evaluation of in vivo sesquiterpene production are performed as follows. The expression plasmid containing the sesquiterpene synthase cDNA are transformed in BL21 (DE3) E. coli cells. Single colonies of transformed cells are used to inoculate 5 mL LB medium supplemented with the appropriate antibiotics. After 5 to 6 hours of incubation at 37° C., the culture were use to inoculate 100 ml TB medium supplemented with the appropriate antibiotics and the culture was incubated for 2 hours at 20° C. in a 250 mL shake flask. After 2 hours incubation, expression of the protein was induced by the addition of 1 mM IPTG. The cultures were left 24 hours and were then directly extracted twice with one volume of pentane. The two solvent fractions were recovered, combined and concentrated to 0.5 mL prior to GC-MS analysis. […] Patchoulol could be clearly detected by GC analysis of the culture extract, and no patchoulol was detected with cells transformed with the empty plasmid. The identity of the product could be confirmed by GC-MS, but the amount of sesquiterpene produced was relatively low and estimation of the quantities was not possible.

[2] = estimated by GC (flame ionization detection)

B1: PatTpsA: recombinant γ-curcumene synthase from patchouli (Pogostemon cablin), cDNA SEQ ID NO:1 (protein)
chain: MAAFTANAVDMRPPVITIHPRSKDIFSQFSLDDKLQKQYAQGIEALKEEARSMLMAAKSAKVMILIDTLERLGLGYHFEKEIEEKLEAIYKKEDGDDYDLFTTALRFRLLRQHQRRVPCSVFDKFMNKEGKFEEEPLISDVEGLLSLYDAAYLQIHGEHILQEALIFTTHHLTRIEPQLDDHSPLKLKLNRALEFPFYREIPIIYAHFYISVYERDDSRDEVLLKMAKLSYNFLQNLYKKELSQLSRWWNKLELIPNLPYIRDSVAGAYLWAVALYFEPQYSDVRMAIAKLIQIAAAVDDTYDNYATIREAQLLTEALERLNVHEIDTLPDYMKIVYRFVMSWSEDFERDATIKEQMLATPYFKAEMKKLGRAYNQELKWVMERQLPSFEEYMKNSEITSGVYIMFTVISPYLNSATQKNIDWLLSQPRLASSTAIVMRCCNDLGSNQRESKGGEVMTSLDCYMKQHGASKQETISKFKLIIEDEWKNLNEEWAATTCLPKVMVEIFRNYARIAGFCYKNNGDAYTSPKIVQQCFDALFVNPLRI
modifications: Pogostemon cablin
[1]
  main (major) sesquiterpene product formed: γ-curcumene
[1]; crude protein extract
  sesquiterpene synthase activity in recombinant E. coli protein extract: low

B2: PatTpsBF2: recombinant (−)-germacrene D synthase from patchouli, cDNA SEQ ID NO:2 (protein)
chain: MELKNQSVAIISSNASRPLAHYHPDVWGDRFLLYKPNPSSEAGQKPVIEELKQQVRSELKEASNDYMRQLKMVDAIQRLGIESLFEEDIDNALKNLSENFDDYCKDKHDLYAIALSFRLLRQHGYRISCDVFDKLKDGEDGFKVPPSDEALAVVELLEATHLRIHGEVVLDRAFVFARIHLESIEANLNNPVAKQVHNALYGYSNRRGMQQVEARKYIPIYEQYASHHQGLLKLATLNFNLQQTMHKRELSELSRWYRDLEVPTMLPFARQRLVETYFWDAGVVFEPENDVARMILVKVQCLISFLDDTFDAYGSFEELQLFTDAINTWDVSCLDQLPDYMKIIYKALLGVFEVIEKLMIKQGTLYRLNYAKEAMKIVVGGYFVEAKWREEKSKPTTQEYMQVATKSAGYMTLIITSFLGMEANIATKEAFDWVLSEPDVMKAAITLARLTNDIVGIELEKERKHIATAVEVYEDEHKLSMQEAMVEIKNQIESGWKTINEAFLRPTKFPTPILYRILNYCRVLEVIYDKSDRYTHVDPALQDIIKQLYIHPIP
modifications: Pogostemon cablin
[1]
  main (major) sesquiterpene product formed: (−)-germacrene D
[1]; crude protein extract
  sesquiterpene synthase activity in recombinant E. coli protein extract: could be detected

B3: PatTpsCF2: recombinant (+)-germacrene A synthase from patchouli, cDNA SEQ ID NO:3 (protein)
chain: MAVQISETVRPFANFSPNPSLWGDQFINHKSKTQQISRIYLEEIEGLKNEVKCMLTSTPEGKMADTVNLIDTLERLGVSYHFEKEIEEKMKHLFNLIKADNYKDHEGCDLYTDALHFRLFRQHGYPISSGIFNKWMDGNGKFKESIKSDAKGLLSLYEACCLRTHGDTLLDEALVFATASLKSMAANLASPLRKQVEHALFQHLHFGIPRVEARHFITFYEEEEHKNEMLLRFAKLDFNALQALHKEELSEISKWWKDLDLISKLPYARDRVVESYFWAVGVYYQPKYSRARIMLTKTIAMTAILDDTYDSYGTLEELDVLTKAIERWDIKEINGLPEYIKGFYKQVLKLYQQLEEELAKEGRSYAVYYAIEACKELARSYAVEAKWFKKGYLPGFEEYLINSLVTSTAGYLNIISFFGVESVTKEDFEWFSKKPRIAVATQIITRVIDDIATYEVEKEKGQSATGIDCYMKEHGVSKEKAMQRFYEMSTNAWKDINEEGLSWPSSFSRDIFVQLRNFSRMVDVTYGKNEDGYSKPEKILKPLIIALFVDQIKL
modifications: Pogostemon cablin
[1]
  main (major) sesquiterpene product formed: (+)-germacrene A
[1]; crude protein extract
  sesquiterpene synthase activity in recombinant E. coli protein extract: easily detected

B4: PatTpsB15: another recombinant (−)-germacrene D synthase from patchouli, cDNA SEQ ID NO:4 (protein)
chain: MDLNEITSSSRPLANYHPNVWGDRFLLHEPEFTCQAGEKQLVEELKEEVRRELKEASNDYLRQLKMVDAIQRLGIEYLFEEEIDEALRNLLAKFENYCKDNHDMYATALSFRLLRQHGYKVSCEVFDKFKDGEDGFKVEEVMAVLELFEATHMRIHGEDVLDQAFVFTRNYLQSIHATLSNPIAKQVHNALNGYSCRRGMPRIEARKYIPIYEEYGCHHKALLKLAKLDFNLLQSMHKRELTQLYRWWKDLEMPTKLPYIRDRLVETYFWDMGFYFEPQYALARNILVKVQCLVSIFDDTFDAYGAFKELQLFKDAIDRWSISCLDELPEYMQIIYKLVLDVFEEIESHMIKQGTSYRLDYAREAIKIVIGGYFDEAKWREEEYKPRMEEYMKVATKSAAYLTLIIVSFVGMKNDIATPQAFQWVLSEPQIITASLALARLSNDLVGIEFEKERKYIATAVELYEEEHKVSKEEAVLELRHETESAWKEINEALLEPTTFATPILDRILNSARVLEVFYDKTDRYTHVDLELQNIIAQLYIHPIP
modifications: Pogostemon cablin
[1]
  main (major) sesquiterpene product formed: (−)-germacrene D
[1]; crude protein extract
  sesquiterpene synthase activity in recombinant E. coli protein extract: relatively good metabolization of FFP

B5: PatTps177: recombinant patchoulol synthase from patchouli, cDNA SEQ ID NO:5 (protein)
chain: MELYAQSVGVGAASRPLANFHPCVWGDKFIVYNPQSCQAGEREEAEELKVELKRELKEASDNYMRQLKMVDAIQRLGIDYLFVEDVDEALKNLFEMFDAFCKNNHDMHATALSFRLLRQHGYRVSCEVFEKFKDGKDGFKVPNEDGAVAVLEFFEATHLRVHGEDVLDNAFDFTRNYLESVYATLNDPTAKQVHNALNEFSFRRGLPRVEARKYISIYEQYASHHKGLLKLAKLDFNLVQALHRRELSEDSRWWKTLQVPTKLSFVRDRLVESYFWASGSYFEPNYSVARMILAKGLAVLSLMDDVYDAYGTFEELQMFTDAIERWDASCLDKLPDYMKIVYKALLDVFEEVDEELIKLGAPYRAYYGKEAMKYAARAYMEEAQWREQKHKPTTKEYMKLATKTCGYITLIILSCLGVEEGIVTKEAFDWVFSRPPFIEATLIIARLVNDITGHEFEKKREHVRTAVECYMEEHKVGKQEVVSEFYNQMESAWKDINEGFLRPVEFPIPLLYLILNSVRTLEVIYKEGDSYTHVGPAMQNIIKQLYLHPVPY
modifications: Pogostemon cablin
BL21 (DE3) E. coli cells
  in vivo production of patchoulol from endogenous FPP: produced patchoulol
[1]; estimated by GC (FID), detected as the thermal rearrangement product β-element
  amount of (+)-germacrene A among sesquiterpenes produced: 1.6%
[1]; [2]
  amount of (Z,E)-α-farnesene among sesquiterpenes produced: 1.35%
  amount of (trans)-alpha-farnesene among sesquiterpenes produced: 3%
  amount of (−)-patchoulol among sesquiterpenes produced: 39.1%
  amount of alpha-guaiene among sesquiterpenes produced: 14%
  amount of alpha-humulene among sesquiterpenes produced: 1.1%
  amount of seychellene among sesquiterpenes produced: 4%
  amount of trans-β-caryophyllene among sesquiterpenes produced: 4.5%
  amount of trans-β-farnesene among sesquiterpenes produced: 3%
  amount of α-bulnesene among sesquiterpenes produced: 8.6%
  amount of α-patchoulene among sesquiterpenes produced: 8.9%
  amount of γ-patchoulene among sesquiterpenes produced: 2.5%
  amount of δ-patchoulene among sesquiterpenes produced: 2.1%
[1]
  main (major) sesquiterpene product formed: (−)-patchoulol
[1]; crude protein extract, GC-MS
  number of other sesquiterpenes produced besides the main product: at least 18
